Laboratory results reported in publication PMC10323027, “Glucagon-like peptide 1 aggregates into low-molecular-weight oligomers off-pathway to fibrillation” (Biophysical Journal, 2023).
Several values for one entry are separate records, joined by “and”; a condition that tells them apart may be missing. Equal entries are not always repeated.

Biological target: the molecule itself
Test: SEC; peptide at 43, 85 or 150 uM incubated in aqueous buffer at pH 7.0 or 8.0 at 37°C with 180 rpm agitation, aliquots filtered (0.22 um) and run on Superose 12 10/300 or Superdex 75 10/300 at room temperature, 0.75 mL/min, elution buffer as incubation buffer; oligomer size from calibration with globular protein standards

B1: Glucagon-like peptide 1, GLP-1(7–37) (peptide)
chain: HAEGTFTSDVSSYLEGQAAKEFIAWLVKGRG
notes: Glucagon-like peptide 1 (7-37), 31-residue peptide hormone cut from proglucagon; free C-terminus (-OH); 3355 Da; Forms non-covalent low-molecular-weight oligomers of varying size; written as the single chain
stoichiometry N: 3 and 5
